Measurements published in patent publication US20220177587A1, “METHODS AND USES OF VARIANT CD80 FUSION PROTEINS AND RELATED CONSTRUCTS” (Alpine Immune Sciences, Inc., priority 2018, published 2022).

What was measured:
CD28 (human) [1] = biological target: CD28 (human) (UniProt P10747); experiment: flow cytometry, transfected Expi293F cells
human CTLA-4 (human) [2] = biological target: human CTLA-4 (human) (UniProt P16410); experiment: flow cytometry, transfected Expi293F cells
human PD-L1 (human) [3] = biological target: human PD-L1 (human) (UniProt Q9NZQ7); experiment: flow cytometry, transfected Expi293F cells
Sequence of human PD-L1 (human) (Q9NZQ7 19-290): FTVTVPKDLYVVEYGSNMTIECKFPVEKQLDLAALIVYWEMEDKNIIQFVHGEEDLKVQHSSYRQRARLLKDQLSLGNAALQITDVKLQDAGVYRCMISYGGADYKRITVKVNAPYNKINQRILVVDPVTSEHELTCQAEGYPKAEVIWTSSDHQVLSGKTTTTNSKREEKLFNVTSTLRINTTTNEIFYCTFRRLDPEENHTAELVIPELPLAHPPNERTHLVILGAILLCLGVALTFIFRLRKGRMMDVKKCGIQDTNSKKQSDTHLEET

[4] = biological target: human PD-L1 (huPD-L1), on stably transduced CHO cells (human) (UniProt Q9NZQ7); experiment: flow cytometry; ratio of MFI on CHO/huPD-L1 cells to MFI on Jurkat (CD28) cells
Sequence of human PD-L1 (huPD-L1), on stably transduced CHO cells (human) (Q9NZQ7 19-290): as above

[5] = biological target: human CTLA-4 (huCTLA4), on stably transduced CHO cells (human) (UniProt P16410); experiment: flow cytometry on CHO/huCTLA4 cells; MFI relative to WT CD80 (CD80 WT IgV-Fc = 1.0)
Sequence of human CTLA-4 (huCTLA4), on stably transduced CHO cells (human) (P16410 36-223): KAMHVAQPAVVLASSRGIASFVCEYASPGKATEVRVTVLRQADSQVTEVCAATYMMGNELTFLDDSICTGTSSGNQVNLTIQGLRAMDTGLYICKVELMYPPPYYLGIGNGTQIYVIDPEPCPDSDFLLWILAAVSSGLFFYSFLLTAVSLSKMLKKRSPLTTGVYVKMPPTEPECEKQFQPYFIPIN

[6] = biological target: human PD-L1 (huPD-L1), on stably transduced CHO cells (human) (UniProt Q9NZQ7); experiment: flow cytometry on CHO/huPD-L1 cells; MFI relative to WT CD80 (CD80 WT IgV-Fc = 1.0)
[7] = biological target: CD28, endogenously expressed on Jurkat/IL2 reporter cells (human) (UniProt P10747); experiment: flow cytometry on Jurkat (CD28) cells; MFI relative to WT CD80 (CD80 WT IgV-Fc = 1.0)
[8] = biological target: human CTLA-4 (huCTLA4), on stably transduced CHO cells (human) (UniProt P16410); experiment: flow cytometry on CHO cells stably expressing huCTLA4, 33.3 nM Fc fusion, PE anti-human Fc
[9] = biological target: human PD-L1 (huPD-L1), on stably transduced CHO cells (human) (UniProt Q9NZQ7); experiment: flow cytometry on CHO cells stably expressing huPD-L1, 33.3 nM Fc fusion, PE anti-human Fc
[10] = biological target: CD28, endogenously expressed on Jurkat/IL2 reporter cells (human) (UniProt P10747); experiment: flow cytometry on Jurkat/IL2 reporter cells (endogenous CD28), 33.3 nM Fc fusion, PE anti-human Fc
human CTLA-4 (human) [11] = biological target: human CTLA-4 (human) (UniProt P16410); experiment: flow cytometry, CHO cells expressing huCTLA4
human PD-L1 (human) [12] = biological target: human PD-L1 (human) (UniProt Q9NZQ7); experiment: flow cytometry, CHO cells expressing huPD-L1
CD28 (human) [13] = biological target: CD28 (human) (UniProt P10747); experiment: flow cytometry, Jurkat/IL2 reporter cells (CD28)
human CTLA-4 (human) [14] = biological target: human CTLA-4 (human) (UniProt P16410); experiment: flow cytometry, CHO cells expressing huCTLA4, vs WT CD80 ECD-Fc (R&D)
CD28 (human) [15] = biological target: CD28 (human) (UniProt P10747); experiment: flow cytometry, Jurkat/IL2 reporter cells (CD28), vs WT CD80 ECD-Fc (R&D)

Sequence of human CTLA-4 (human) (P16410 36-223): as above

| MFI (CD28 (human) [1]) | parental ratio (CD28 (human) [1]) | MFI (human CTLA-4 (human) [2]) | parental ratio (human CTLA-4 (human) [2]) | MFI (human PD-L1 (human) [3]) | parental ratio (human PD-L1 (human) [3]) | Ratio of PDL1:CD28 [4] | Fold change to WT CD80 [5] [fold] | Fold change to WT CD80 [6] [fold] | Fold change to WT CD80 [7] [fold] | MFI at 33.3 nM [8] [MFI] | MFI at 33.3 nM [9] [MFI] | MFI at 33.3 nM [10] [MFI] | Binder | other results |
| --- | --- | --- | --- | --- | --- | --- | --- | --- | --- | --- | --- | --- | --- | --- |
| 1400 | 0.03 | 1460 | 0.01 | 2550 | 0.03 | – | – | – | – | – | – | – | CD80 Y53C/L85R/K89N/A91T/F92P/K93V/R94L/I118V/T120S/I127T/T130A/K169E ECD-Fc (Fc fusion) VIHVTKEVKEVATLSCGHNVSVEELAQTRIYWQKEKKMVLTMMSGDMNIWPECKNRTIFDITNNLSIVILALRPSDEGTYECVVRKYENDTPVLEHLAEVTLSVKADFPTPSISDFEVPSSNIRRITCSASGGFPEPHLSWLENGEELNAINTTVSQDPETELYAVSSELDFNMTTNHSFMCLIKYGHLRVNQTFNWNTTKQEHFPDN | – |
| 2110 | 0.05 | 2120 | 0.01 | 14200 | 0.05 | – | – | – | – | – | – | – | CD80 R29D/Y31L/Q33H/K36G/M38I/T41A/M43R/M47T/L70Q/E81V/K89N/A91T/F92P/K93V/R94L/I118V/T120S/I127T/T130A ECD-Fc (Fc fusion) VIHVTKEVKEVATLSCGHNVSVEELAQTDILWHKEGKIVLAMRSGDTNIWPEYKNRTIFDITNNLSIVIQALRPSDEGTYVCVVLKYENDTPVLEHLAEVTLSVKADFPTPSISDFEVPSSNIRRITCSASGGFPEPHLSWLENGEELNAINTTVSQDPETELYAVSSKLDFNMTTNHSFMCLIKYGHLRVNQTFNWNTTKQEHFPDN | – |
| 1910 | 0.04 | 1730 | 0.01 | 3510 | 0.04 | – | – | – | – | – | – | – | CD80 R29D/Y31L/Q33H/K36G/M38I/T41A/M43R/M47T/L70Q/D76G/A91G/S103L/I118V/T120S/I127T/T130A ECD-Fc (Fc fusion) VIHVTKEVKEVATLSCGHNVSVEELAQTDILWHKEGKIVLAMRSGDTNIWPEYKNRTIFDITNNLSIVIQALRPSGEGTYECVVLKYEKDGFKREHLAEVTLLVKADFPTPSISDFEVPSSNIRRITCSASGGFPEPHLSWLENGEELNAINTTVSQDPETELYAVSSKLDFNMTTNHSFMCLIKYGHLRVNQTFNWNTTKQEHFPDN | – |
| 1240 | 0.03 | 2090 | 0.01 | 110000 | 0.03 | – | – | – | – | – | – | – | CD80 H18L/R29D/Y31L/Q33H/K36G/M38I/T41A/M43R/M47T/E81V/L85R/K89N/A91T/F92P/K93V/R94L/F116S/T130A/H188D ECD-Fc (Fc fusion) VIHVTKEVKEVATLSCGLNVSVEELAQTDILWHKEGKIVLAMRSGDTNIWPEYKNRTIFDITNNLSIVILALRPSDEGTYVCVVRKYENDTPVLEHLAEVTLSVKADFPTPSISDSEIPTSNIRRIICSASGGFPEPHLSWLENGEELNAINTTVSQDPETELYAVSSKLDFNMTTNHSFMCLIKYGDLRVNQTFNWNTTKQEHFPDN | – |
| 1210 | 0.03 | 1800 | 0.01 | 4500 | 0.03 | – | – | – | – | – | – | – | CD80 C16S/H18L/R29D/Y31L/Q33H/K36G/M38I/T41A/M43R/M47T/E81V/L85R/K89N/A91T/F92P/K93V/R94L/T110A/I118V/H188D ECD-Fc (Fc fusion) VIHVTKEVKEVATLSSGLNVSVEELAQTDILWHKEGKIVLAMRSGDTNIWPEYKNRTIFDITNNLSIVILALRPSDEGTYVCVVRKYENDTPVLEHLAEVTLSVKADFPAPSISDFEVPTSNIRRIICSTSGGFPEPHLSWLENGEELNAINTTVSQDPETELYAVSSKLDFNMTTNHSFMCLIKYGDLRVNQTFNWNTTKQEHFPDN | – |
| 1990 | 0.04 | 3110 | 0.01 | 3290 | 0.04 | – | – | – | – | – | – | – | CD80 Y53C/L70Q/D90G/T130A/N149D/N152T/H188D ECD-Fc (Fc fusion) VIHVTKEVKEVATLSCGHNVSVEELAQTRIYWQKEKKMVLTMMSGDMNIWPECKNRTIFDITNNLSIVIQALRPSDEGTYECVVLKYEKGAFKREHLAEVTLSVKADFPTPSISDFEIPTSNIRRIICSASGGFPEPHLSWLENGEELDAITTTVSQDPETELYAVSSKLDFNMTTNHSFMCLIKYGDLRVNQTFNWNTTKQEHFPDN | – |
| – | – | – | – | – | – | 6 | 14.8 | 104 | 20.1 | 28400 | 7330 | 1320 | variant CD80 IgV-Fc D46V/M47I/A71G (Fc fusion) VIHVTKEVKEVATLSCGHNVSVEELAQTRIYWQKEKKMVLTMMSGVINIWPEYKNRTIFDITNNLSIVILGLRPSDEGTYECVVLKYEKDAFKREHLAEVTLSVKAD | – |
| – | – | – | – | – | – | – | – | – | – | – | – | – | variant CD80 IgV-Fc V22A/E35D/M47I/Y87N (Fc fusion) VIHVTKEVKEVATLSCGHNVSAEELAQTRIYWQKDKKMVLTMMSGDINIWPEYKNRTIFDITNNLSIVILALRPSDEGTYECVVLKNEKDAFKREHLAEVTLSVKAD | MFI at 33.3 nM (human CTLA-4 (human) [11]): 246000 MFI; MFI at 33.3 nM (human PD-L1 (human) [12]): 35300 MFI; MFI at 33.3 nM (CD28 (human) [13]): 15300 MFI; Fold change to WT CD80 (human CTLA-4 (human) [14]): 1.56 fold; Fold change to WT CD80 (CD28 (human) [15]): 0.85 fold |
| – | – | – | – | – | – | 42 | 8.7 | 118 | 3 | 16600 | 8310 | 199 | variant CD80 IgV-Fc E35D/M47L/A71G/L85M (Fc fusion) VIHVTKEVKEVATLSCGHNVSVEELAQTRIYWQKDKKMVLTMMSGDLNIWPEYKNRTIFDITNNLSIVILGLRPSDEGTYECVVMKYEKDAFKREHLAEVTLSVKAD | – |
| – | – | – | – | – | – | – | – | – | – | 22800 | 2610 | 44.6 | variant CD80 IgV-Fc E35D/L97R (Fc fusion) VIHVTKEVKEVATLSCGHNVSVEELAQTRIYWQKDKKMVLTMMSGDMNIWPEYKNRTIFDITNNLSIVILALRPSDEGTYECVVLKYEKDAFKREHRAEVTLSVKAD | – |
| – | – | – | – | – | – | 14 | 12.6 | 108 | 8 | 24200 | 7580 | 528 | variant CD80 IgV-Fc H18Y/E35D/M47L/A71G/A91S (Fc fusion) VIHVTKEVKEVATLSCGYNVSVEELAQTRIYWQKDKKMVLTMMSGDLNIWPEYKNRTIFDITNNLSIVILGLRPSDEGTYECVVLKYEKDSFKREHLAEVTLSVKAD | – |
| – | – | – | – | – | – | 12 | 14.6 | 38.5 | 3.5 | 27900 | 2700 | 230 | variant CD80 IgV-Fc Q27L/E35D/M47V/I61V/L85M (Fc fusion) VIHVTKEVKEVATLSCGHNVSVEELALTRIYWQKDKKMVLTMMSGDVNIWPEYKNRTIFDVTNNLSIVILALRPSDEGTYECVVMKYEKDAFKREHLAEVTLSVKAD | – |
| – | – | – | – | – | – | 18 | 15.8 | 41 | 2.5 | 30300 | 2880 | 164 | variant CD80 IgV-Fc E35D/D46E/L85M (Fc fusion) VIHVTKEVKEVATLSCGHNVSVEELAQTRIYWQKDKKMVLTMMSGEMNIWPEYKNRTIFDITNNLSIVILALRPSDEGTYECVVMKYEKDAFKREHLAEVTLSVKAD | – |
| – | – | – | – | – | – | 4 | 11.2 | 53.9 | 15.2 | 21400 | 3790 | 1000 | variant CD80 IgV-Fc E35D/D46E/M47I (Fc fusion) VIHVTKEVKEVATLSCGHNVSVEELAQTRIYWQKDKKMVLTMMSGEINIWPEYKNRTIFDITNNLSIVILALRPSDEGTYECVVLKYEKDAFKREHLAEVTLSVKAD | – |
| – | – | – | – | – | – | 5 | 14.4 | 48.7 | 11.5 | 27500 | 3420 | 756 | variant CD80 IgV-Fc Q27H/E35D/M47I (Fc fusion) VIHVTKEVKEVATLSCGHNVSVEELAHTRIYWQKDKKMVLTMMSGDINIWPEYKNRTIFDITNNLSIVILALRPSDEGTYECVVLKYEKDAFKREHLAEVTLSVKAD | – |
| – | – | – | – | – | – | 5 | 14.6 | 53.4 | 11.8 | 27900 | 3760 | 779 | variant CD80 IgV-Fc E35D/D46E (Fc fusion) VIHVTKEVKEVATLSCGHNVSVEELAQTRIYWQKDKKMVLTMMSGEMNIWPEYKNRTIFDITNNLSIVILALRPSDEGTYECVVLKYEKDAFKREHLAEVTLSVKAD | – |
| – | – | – | – | – | – | 6 | 14.5 | 72.5 | 12.5 | 27800 | 5100 | 823 | variant CD80 IgV-Fc M47I/A71G (Fc fusion) VIHVTKEVKEVATLSCGHNVSVEELAQTRIYWQKEKKMVLTMMSGDINIWPEYKNRTIFDITNNLSIVILGLRPSDEGTYECVVLKYEKDAFKREHLAEVTLSVKAD | – |
